Assay [1] has as its target T1, GST-RhoC (wild type) (Homo sapiens (assumed), UniProt P08134).
T1 construct: Loaded with GDP or GTPγS as told in each assay; source: E. coli BL21, purified on glutathione-coated plates; not shown: GST, N-terminal, kept
Put plainly: ELISA; GST proteins loaded with 200 μM GTPγS for 30 min and purified on glutathione ELISA plates; 10^10 clones of C1 phages in each well; anti-M13-HRP, TMB. The note with it: one partner purified.

The target of assay [2] is T2, GST-Rac1 (Homo sapiens (assumed), UniProt P63000). Described as above. The note with it: one partner purified.
Assay [3] has as its target T3, GST-Cdc42 (Homo sapiens (assumed), UniProt P60953).
T3 construct: Cdc42, from a pGEX plasmid provided by Dr. A. Blangy; Loaded with GDP, GTP or GTPγS as told in each assay; also called GTP-Cdc42; source: E. coli BL21, purified on glutathione-coated plates
The assay is described as above. The note with it: one partner purified.

Assay [4] addresses T4, GST-RhoB (wild type) (Homo sapiens (assumed), UniProt P62745).
T4 construct: Loaded with GDP, GTP or GTPγS as told in each assay; The immunoprecipitation speaks only of recombinant RhoB without naming the GST; also called recombinant RhoB; source: E. coli BL21, purified on glutathione-coated plates; crude bacterial lysate (immunoprecipitation); not shown: GST, N-terminal, kept
Described as above. The note with it: one partner purified.

In assay [5] the target is T2, GST-Rac1. The assay is described as follows: ELISA; competition ELISA on a RhoAQ63L coated plate: scFvC1-N1N2 (0.4 μM) competed by increasing concentrations of GST-RBD, GDP bound RhoA, GTP bound Cdc42, GTP bound Rac1. (ELISA stands for enzyme-linked immunosorbent assay.)
Assay [6] has as its target T3, GST-Cdc42. The description is as above.
For assay [7], the target named is T4, GST-RhoB (wild type). Put plainly: pull-down; scFv C1-N1N2 from crude bacterial extract fixed on Ni-NTA beads; crude bacterial lysate with recombinant RhoA or RhoB loaded with 0.2 mM GTPγS (PBS, 10 mM EDTA, 30 min, 30°C); 45 min at 4°C; blot with anti-RhoA or anti-RhoB; called immunoprecipitation. The note with it: one partner purified.
Assay [8] addresses T5, GST-RhoAQ63L (UniProt P61586 1-193, Q63L).
T5 construct: GTP-locked mutant; source: E. coli BL21, purified on glutathione-coated plates; not shown: GST, N-terminal, kept
The assay is described as follows: ELISA + SPR; competition ELISA on a RhoAQ63L coated plate (scFvC1-N1N2 0.4 μM competed by increasing GST-RBD); KD of GST-RBD also determined by SPR on GST-RhoAQ63L.

T3 sequence (P60953 whole entry): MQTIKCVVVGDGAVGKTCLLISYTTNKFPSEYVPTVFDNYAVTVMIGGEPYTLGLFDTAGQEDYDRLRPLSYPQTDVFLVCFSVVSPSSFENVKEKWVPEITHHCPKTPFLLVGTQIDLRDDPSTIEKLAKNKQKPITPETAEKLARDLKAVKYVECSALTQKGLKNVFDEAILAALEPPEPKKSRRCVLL
T4 sequence (P62745 whole entry): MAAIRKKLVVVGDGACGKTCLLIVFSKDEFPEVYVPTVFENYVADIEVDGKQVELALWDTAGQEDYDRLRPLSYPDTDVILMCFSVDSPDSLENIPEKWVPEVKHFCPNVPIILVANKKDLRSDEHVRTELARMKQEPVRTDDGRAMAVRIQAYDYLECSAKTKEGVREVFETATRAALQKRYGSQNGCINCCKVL
T1 sequence (P08134 whole entry): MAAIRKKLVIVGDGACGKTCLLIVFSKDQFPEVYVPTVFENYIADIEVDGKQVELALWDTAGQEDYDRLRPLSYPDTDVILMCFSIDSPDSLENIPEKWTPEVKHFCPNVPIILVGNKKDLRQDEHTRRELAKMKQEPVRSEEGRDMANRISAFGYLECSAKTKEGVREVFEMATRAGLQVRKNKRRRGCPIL
T5 sequence (P61586 whole entry Q63L): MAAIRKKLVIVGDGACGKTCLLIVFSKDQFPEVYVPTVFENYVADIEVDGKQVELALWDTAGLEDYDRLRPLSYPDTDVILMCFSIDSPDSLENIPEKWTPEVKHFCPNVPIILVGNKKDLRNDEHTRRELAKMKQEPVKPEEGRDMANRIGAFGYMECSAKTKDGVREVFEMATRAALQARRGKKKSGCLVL

B1: C1 phage (scFv C1-pIII fusion protein displayed on phage) (scFv, V domains shown)
VH: not shown
VL: SSELTQDPAVSVALGQTVRITCQGDSLRSYYASWYQQKPGQAPVLVIYGKNNRPSGIPDRFSGSSSGNTASLTITGAQAEDEADYYCNSRDSSGNHAYVFGGGTKLTVL
notes: VH of scFv C1 (human synthetic, Griffin.1 library); linker between VH and VL of the Griffin.1 library vector pHEN2; VL of scFv C1 (human synthetic, Griffin.1 library); source: monoclonal phage from E. coli supernatant (Griffin.1 library, phagemid pHEN2); not shown: 6xHis, C-terminal, kept; myc, C-terminal, kept
Turning to B1, the binding result in assay [1] was “binds”; in assay [2] it was “no binding (tested: 10^10 clones of C1 phages)”; in assay [3], “no binding (tested: 10^10 clones of C1 phages)”; in assay [4], “binds”.

B2: scFv C1-N1N2 (scFv, V domains shown)
VH: not shown
VL: SSELTQDPAVSVALGQTVRITCQGDSLRSYYASWYQQKPGQAPVLVIYGKNNRPSGIPDRFSGSSSGNTASLTITGAQAEDEADYYCNSRDSSGNHAYVFGGGTKLTVL
notes: VH of scFv C1, as in m1; linker between VH and VL of the vector pHEN2, as in m1; VL of scFv C1, as in m1; N-terminal portions N1 and N2 of the phage coat protein pIII of M13 (vector pHEN2); the C-terminal portion of pIII removed; The amber codon between the tags and gene III was mutated so that translation runs into pIII; an EcoRI site was put in after N2; Predicted mass 60 kDa; Smaller proteins …
With B2, the Kd in assay [5] and in assay [6] was greater than 50 µM in each case. For the same molecule, the results for the binding result in assay [5], in assay [6] and in assay [7] were “no binding (tested: > 50 μM)”, “no binding (tested: > 50 μM)” and “binds”, respectively.

B3: GST-RBD (Rho binding domain of Rhotekin fused to GST) (domain or fragment)
chain: ILEDLNMLYIRQMALSLEDTELQRKLDHEIRMRDGACKLLAACSQREQALEATKSLLVCNSRILSYMGELQRRKEAQVLEKTG
On to B3, for which the Kd (usually a measure of binding affinity in units of concentration) in assay [8] amounted to 0.2 ± 0.2 µM.

For the origin of these results see PMC2323369, “Identification of a GTP-bound Rho specific scFv molecular sensor by phage display selection” (BMC Biotechnology, 2008).
